# Test results reported in article PMC5726920 (Nature chemical biology, 2017).
# B1: mitochondrial malate dehydrogenase (enzyme)
# chain: AKVAVLGASGGIGQPLSLLLKNSPLVSRLTLYDIAHTPGVAADLSHIETKAAVKGYLGPEQLPDCLKGCDVVVIPAGVPRKPGMTRDDLFNTNATIVATLTAACAQHCPEAMICVIANPVNSTIPITAEVFKKHGVYNPNKIFGVTTLDIVRANTFVAELKGLDPARVNVPVIGGHAGKTIIPLISQCTPKVDFPQDQLTALTGRIQEAGTEVVKAKAGAGSATLSMAYAGARFVFSLVDAMNGKEGVVECSFVKSQETECTYFSTPLLLGKKGIEKNLGIGKVSSFEEKMISDAIPELKASIKKGEDFVKTLK
# B2: human mitochondrial superoxide dismutase (enzyme)
# chain: KHSLPDLPYDYGALEPHINAQIMQLHHSKHHAAYVNNLNVTEEKYQEALAKGDVTAQIALQPALKFNGGGHINHSIFWTNLSPNGGGEPKGELLEAIKRDFGSFDKFKEKLTAASVGVQGSGWGWLGFNKERGHLQIAACPNQDPLQGTTGLIPLLGIDVWEHAYYLQYKNVRPDYLKAIWNVINWENVTERYMACKK
# B3: creatine kinase M from mouse heart (enzyme)
# chain: not shown
# B4: 3-hydroxyisobutyrate dehydrogenase (enzyme)
# chain: ASKTPVGFIGLGNMGNPMAKNLMKHGYPLILYDVFPDVCKEFKEAGEQVASSPAEVAEKADRIITMLPSSMNAVEVYSGANGILKKVKKGSLLIDSSTIDPSVSKELAKEVEKMGAVFMDAPVSGGVGAARSGNLTFMVGGVEDEFAAAQELLECMGSNVVYCGAVGTGQSAKICNNMLLAISMIGTAEAMNLGIRSGLDPKLLAKILNMSSGRCWSSDTYNPVPGVMHGVPSSNNYQGGFGTTLMAKDLGLAQDSATSTKTPILLGSLAHQIYRMMCSKGYSKKDFSSVFQYLREEEPF
# B5: NAD(P)H-hydrate epimerase (enzyme)
# chain: ASTVVKYLSQEEAQAVDQELFNEYQFSVDQLMELAGLSCATAIAKAYPPTSMSRSPPTVLVICGPGNNGGDGLVCARHLKLFGYEPTIYYPKRPNKPLFTALVTQCQKMDIPFLGEMPAEPMTIDELYELVVDAIFGFSFKGDVREPFHSILSVLKGLTVPIASIDIPSGWDVEKGNAGGIQPDLLISLTAPKKSATQFTGRYHYLGGRFVPPALEKKYQLNLPPYPDTECVYRLQ
# B6: murine cytosolic aspartate aminotransferase (enzyme)
# chain: MAPPSVFAQVPQAPPVLVFKLTADFRDDPDPRKVNLGVGAYRTDESQPWVLPVVRKVEQKIANDNSLNHEYLPILGLAEFRSCASRLVLGDNSLAIRENRVGGVQSLGGTGALRIGADFLGRWYNGTDNKNTPIYVSSPTWENHNAVFSAAGFKDIRPYCYWDAEKRGLDLQGFLNDLENAPEFSIFVLHACAHNPTGTDPTPEQWKQIAAVMQRRFLFPFFDSAYQGFASGDLEKDAWAIRYFVSEGFELFCAQSFSKNFGLYNERVGNLTVVGKESDSVLRVLSQMEKIVRITWSNPPAQGARIVAATLSDPELFKEWKGNVKTMADRILTMRSELRARLEALKTPGTWSHITEQIGMFSFTGLNPKQVEYLVNEKHIYLLPSGRINMCGLTTKNLDYVATSIHEAVTKIQ
# Target: the molecule itself
# Assay: native MS
row,Protein,stoichiometry N
1,B1,2
2,B2,4
3,B3,2
4,B4,4
5,B5,2
6,B6,2
